Experimental findings from paper PMC5547898 are described below.

The target in the assay is Myc-tagged metabotropic glutamate receptor 5 (Myc-mGluR5) (UniProt P41594). Briefly: co-IP.
Sequence of UniProt P41594 (P41594 21-1212): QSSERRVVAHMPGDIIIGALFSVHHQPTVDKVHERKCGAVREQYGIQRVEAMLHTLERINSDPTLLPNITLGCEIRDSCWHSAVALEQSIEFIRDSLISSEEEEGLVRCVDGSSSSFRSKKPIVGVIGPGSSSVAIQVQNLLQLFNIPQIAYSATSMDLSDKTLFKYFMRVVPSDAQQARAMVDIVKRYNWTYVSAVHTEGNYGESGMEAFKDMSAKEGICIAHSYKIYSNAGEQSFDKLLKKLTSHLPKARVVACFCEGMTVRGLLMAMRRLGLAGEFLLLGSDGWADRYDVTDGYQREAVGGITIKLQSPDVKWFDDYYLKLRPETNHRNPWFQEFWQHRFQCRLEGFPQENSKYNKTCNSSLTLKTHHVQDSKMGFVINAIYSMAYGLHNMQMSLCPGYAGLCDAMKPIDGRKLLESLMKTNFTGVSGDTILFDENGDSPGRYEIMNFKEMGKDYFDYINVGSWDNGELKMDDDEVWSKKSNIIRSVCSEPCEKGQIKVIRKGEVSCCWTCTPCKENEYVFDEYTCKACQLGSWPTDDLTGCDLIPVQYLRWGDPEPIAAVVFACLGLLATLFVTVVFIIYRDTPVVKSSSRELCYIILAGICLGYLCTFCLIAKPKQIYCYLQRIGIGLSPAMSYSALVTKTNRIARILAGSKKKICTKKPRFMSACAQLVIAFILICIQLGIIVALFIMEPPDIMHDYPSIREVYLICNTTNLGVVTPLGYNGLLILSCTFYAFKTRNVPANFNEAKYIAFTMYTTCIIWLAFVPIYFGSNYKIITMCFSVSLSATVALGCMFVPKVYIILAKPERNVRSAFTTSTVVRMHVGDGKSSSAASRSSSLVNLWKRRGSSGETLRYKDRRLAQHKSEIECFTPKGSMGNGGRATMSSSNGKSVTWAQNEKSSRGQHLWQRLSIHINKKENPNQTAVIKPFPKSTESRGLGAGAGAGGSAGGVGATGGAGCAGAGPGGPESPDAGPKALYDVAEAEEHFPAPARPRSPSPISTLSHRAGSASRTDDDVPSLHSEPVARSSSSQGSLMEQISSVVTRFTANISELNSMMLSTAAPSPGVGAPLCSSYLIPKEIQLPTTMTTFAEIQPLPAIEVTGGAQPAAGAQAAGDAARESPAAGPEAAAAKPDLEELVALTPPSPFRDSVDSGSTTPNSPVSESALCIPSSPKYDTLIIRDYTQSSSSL

“cellular prion protein (PrP^C) (from UniProt P04156 23-230) (natural protein)” displayed a fold increase of the co-immunoprecipitate with Aβo against without Aβo greater than 2 fold.
